Reference: US20220031857A1 (OSSIANIX, published 2022)

T1: recombinant mouse TfR2 (mouse, UniProt Q9JKX3 103-798, limits assumed)
T1 construct: Negative control protein
T1 sequence (looked up): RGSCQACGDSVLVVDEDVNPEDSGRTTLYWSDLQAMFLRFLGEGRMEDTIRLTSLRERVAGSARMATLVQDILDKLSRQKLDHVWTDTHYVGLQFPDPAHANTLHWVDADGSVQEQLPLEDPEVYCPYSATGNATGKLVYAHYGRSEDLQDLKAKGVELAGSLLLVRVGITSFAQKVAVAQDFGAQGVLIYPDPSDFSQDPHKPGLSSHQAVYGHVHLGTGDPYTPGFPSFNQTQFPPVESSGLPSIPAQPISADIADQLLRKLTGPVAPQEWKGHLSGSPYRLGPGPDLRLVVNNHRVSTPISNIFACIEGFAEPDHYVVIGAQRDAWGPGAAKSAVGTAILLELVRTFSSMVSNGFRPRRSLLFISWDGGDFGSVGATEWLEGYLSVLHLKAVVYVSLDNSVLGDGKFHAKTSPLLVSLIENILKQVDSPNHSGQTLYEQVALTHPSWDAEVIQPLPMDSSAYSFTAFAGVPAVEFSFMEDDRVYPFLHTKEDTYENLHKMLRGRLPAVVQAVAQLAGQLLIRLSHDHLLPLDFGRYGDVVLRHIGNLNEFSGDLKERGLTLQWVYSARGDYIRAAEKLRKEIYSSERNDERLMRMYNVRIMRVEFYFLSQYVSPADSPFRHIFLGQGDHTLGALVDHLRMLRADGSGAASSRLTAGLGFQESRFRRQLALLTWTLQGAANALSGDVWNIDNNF

B1: Clone 7 VNAR-Fc fusion protein (Fc fusion)
chain: ARVDQTPQTITKETGESLTINCVLRDSNCELSSTYWYRKKSGSTNEARISKGGRYVETVNSGSKSFSLKINDLTVEDSGTYRCNVLTTDSYDLGDVYGDGTVVTVNA
notes: Bivalent VNAR-Fc; not shown: glycine/serine linker (GxSx)n extending the hinge; human IgG1 Fc (hinge, CH2, CH3) of pFUSE-hIgG1e3-Fc2; G236 also deleted
B2: SEQ ID NO 49 (VNAR clone displayed on phage) (VNAR)
VNAR: ARVDQTPRSVTKETGESLTINCVLRDASYELGSTCWYRKKSGSTNEESISKGGRYVETVNSGSKSFSLRINDLTVEDGGTYRCGVISQYKSYTLWCDALYRSLGCECARAACGDGTAVTVNA
notes: shark VNAR domain on M13 phage; coat-protein fusion not described
B3: SEQ ID NO 45 (VNAR clone displayed on phage) (VNAR)
VNAR: ARVDQTPRSVTKETGESLTINCVLRDASYALGSTCWYRKKSGSTNEESISKGGRYVETVNSGSKSFSLRINDLTVEDGGTYRCGVCESSFCSLPYDCDSSSAGSVIQPFGHIVSLAACGDGTAVTVNA
notes: as for B2
B4: SEQ ID NO 42 (VNAR clone displayed on phage) (VNAR)
VNAR: ARVDQTPRSVTKETGESLTINCVLRDASYALGSTCWYRKKSGSTNEESISKGGRYVETVNSGSKSFSLRINDLTVEDGGTYRCGVCEMQLIAVDSCDHTLDDGLCGGVYAACGDGTAVTVNA
notes: as for B2
B5: SEQ ID NO 1 (VNAR clone displayed on phage) (VNAR)
VNAR: ARVDQTPQTITKETGESLTINCVLRDNNCALSTTYWYRKKSGSTNEENISKGGRYVETVNSGSKSFSLKINDLTVEDSGTYRCNVRDVQACGNDWVWLDVYGGGTVVTVNA
notes: shark VNAR domain on M13 phage; coat-protein fusion not described; also called clone 1
B6: SEQ ID NO 43 (VNAR clone displayed on phage) (VNAR)
VNAR: ARVDQTPRSVTKETGESLTINCVLRDASYALGSTCWYRKKSGSTNEESISKGGRYVETVNSGSKSFSLRINDLTVEDGGTYRCGVYGGTHQGLCGCDWQLRFSLCGDGRAACGDGTAVTVNA
notes: as for B2
B7: SEQ ID NO 10 (VNAR clone displayed on phage) (VNAR)
VNAR: ARVDQTPQTITKETGESLTINCVLRDSNCALSSTYWYRKKSGSTNEENISKGGRYVETVNSGSKSFSLRINDLTVEDSGTYRCNVVQYPSYNNYFWCDVYGDGTAVTVNA
notes: shark VNAR domain on M13 phage; coat-protein fusion not described; also called clone 10
B8: SEQ ID NO 46 (VNAR clone displayed on phage) (VNAR)
VNAR: ARVDQTPRSVTKETGESLTINCVLRDASYALGSTCWYRKKSGSTNEESISKGGRYVETVNSGSKSFSLRINDLTVEDGGTYRCGVCSDYGLQTTGQQAACGDGTAVTVNA
notes: as for B2
B9: SEQ ID NO 11 (VNAR clone displayed on phage) (VNAR)
VNAR: ARVDQTPQTITKETGESLTINCVLRDSNCALPSTHWYRKKSGSTNEESISKGGRYVETVNSGSKSFSLRINDLTVEDSGTYRCKVLNFFTHTCVQVQKYDVYGGGTAVTVNA
notes: shark VNAR domain on M13 phage; coat-protein fusion not described; also called clone 11
B10: SEQ ID NO 48 (VNAR clone displayed on phage) (VNAR)
VNAR: ARVDQTPRSVTKETGESLTINCVLRDASYELGSTCWYRKKSGSTNEESISKGGRYVETVNSGSKSFSLRINDLTVEDGGTYRCGASLQCGNCELCDREQLQCGGQRGQLAACGDGTAVTVNA
notes: as for B2
B11: SEQ ID NO 2 (VNAR clone displayed on phage) (VNAR)
VNAR: ARVDQTPQTITKETGESLTINCVLRDNNCALSTTYWYRKKSGSTNEENISKGGRYVETVNSGSKSFSLKINDLTVEDSGTYRCNVFGVDNGWWCDVYGGGTVVTVNA
notes: shark VNAR domain on M13 phage; coat-protein fusion not described; also called clone 2
B12: SEQ ID NO 7 (VNAR clone displayed on phage) (VNAR)
VNAR: B1 chain
notes: shark VNAR domain on M13 phage; coat-protein fusion not described; also called clone 7
B13: SEQ ID NO 47 (VNAR clone displayed on phage) (VNAR)
VNAR: ARVDQTPRSVTKETGESLTINCVLRDASYALGSTCWYRKKSGSTNEESISKGGRYVETVNSGSKSFSLRINDLTVEDGGTYRCGAAIQGFWAGRCDNLPGKCVMQVSNAAACGDGTAVTVNA
notes: as for B2
B14: SEQ ID NO 39 (VNAR clone displayed on phage) (VNAR)
chain: ARVDQTPQTITKETGESLTINCVLRDSNCALSSTLWYRTKSGSRNEESISKGGRYVETVNSGSKSFSLKINDLTVEDSGTYRCNVQGMVYDGSSFWWCDVYGDSTAVTVNA
notes: shark VNAR domain on M13 phage; coat-protein fusion not described; also called clone 39
B15: SEQ ID NO 51 (VNAR clone displayed on phage) (VNAR)
VNAR: ARVDQTPRSVTKETGESLTINCVLRDASYALGSTCWYRKKSGSTNEESISKGGRYVETVNSGSKSFSLRINDLTVEDSGTYRCNVIQYLYLGSYFACDVYGGGTVVTVNA
notes: as for B2
B16: SEQ ID NO 44 (VNAR clone displayed on phage) (VNAR)
VNAR: ARVDQTPRSVTKETGESLTINCVLRDASYALGSTCWYRKKSGSTNEESISKGGRYVETVNSGSKSFSLRINDLTVEDGGTYRCGVCQCWSANVWVDCDMTSTSIRMRDGSRSNARAACGDGTAVTVNA
notes: as for B2
B17: SEQ ID NO 12 (VNAR clone displayed on phage) (VNAR)
VNAR: ARVDQTPQTITKETGESLTINCVLRDSICALSSTHWYRKKSGSTNEESISKGGRYVETVNSGSKSFSLRINDLTVEDSGTYRCKVVRSGVGPCWADVYGGGTAVTVNA
notes: shark VNAR domain on M13 phage; coat-protein fusion not described; also called clone 12
B18: SEQ ID NO 50 (VNAR clone displayed on phage) (VNAR)
VNAR: ARVDQTPRSVTKETGESLTINCVLRDASYALGSTCWYRKKSGSTNEESISKGGRYVETVNSGSKSFSLRINDLTVEDGGTYRCGVMNNVSQTWVRCDSQVMSQQCVQQSAACGDGTAVTVNA
notes: as for B2
B19: Clone 16 VNAR-Fc fusion protein (Fc fusion)
chain: ARVDQTPQTITKETGESLTINCVLRDSNCALPSTYWYRKKSGSTNEESISKGGRYVETVNSGSKSFSLRINDLTVKDSGTYRCKVDLPRYLCFSQYGRWYDVYGDGTAVTVNA
notes: as for B1

target: T1, recombinant mouse TfR2; assay: ELISA with Expi293 culture medium used directly, coated mouse TfR2, anti-Fc detection
Protocol: (§1) FIG. 6. […] The VNAR-Fc fusion proteins were transiently expressed using Expi293 expression system. VNAR-Fc constructs contained signal peptide sequence in order to be secreted. Cell growth media was used directly in ELISA. HSA and mouse TfR2 were used as negative controls for unspecific binding. A clone in position 52 represents untransfected cells. Total Fc concentration was measured with capture and detection anti-Fc antibody pair using irrelevant VNAR-Fc at known concentration for standard curve.
(§2) The next day the plates were blocked with […] with 0.1% Tween20 (PBST) for 1 hour at room temperature. Transfected cells were spun down at 2000 rpm for 10 minutes and the collected supernatant was mixed with milk in PBST to a final 2.5% concentration and incubated for 30 minutes. 100 μl of blocked supernatant was transferred into coated plates and incubated for 1 hour. […] The plates were washed and developed with TMB detection solution before stopping the reaction with 1% HCl. Absorbance was measured at 450 nm. A VNAR-Fc at know concentration was used for standard curve to calculate VNAR-Fc expression level.

Binder | binding result
B1 | no binding

target: T2, human serum albumin (human, UniProt P02768 25-609); assay: phage ELISA
T2 construct: Negative control protein; also called HSA
T2 sequence (P02768 25-609 limits assumed): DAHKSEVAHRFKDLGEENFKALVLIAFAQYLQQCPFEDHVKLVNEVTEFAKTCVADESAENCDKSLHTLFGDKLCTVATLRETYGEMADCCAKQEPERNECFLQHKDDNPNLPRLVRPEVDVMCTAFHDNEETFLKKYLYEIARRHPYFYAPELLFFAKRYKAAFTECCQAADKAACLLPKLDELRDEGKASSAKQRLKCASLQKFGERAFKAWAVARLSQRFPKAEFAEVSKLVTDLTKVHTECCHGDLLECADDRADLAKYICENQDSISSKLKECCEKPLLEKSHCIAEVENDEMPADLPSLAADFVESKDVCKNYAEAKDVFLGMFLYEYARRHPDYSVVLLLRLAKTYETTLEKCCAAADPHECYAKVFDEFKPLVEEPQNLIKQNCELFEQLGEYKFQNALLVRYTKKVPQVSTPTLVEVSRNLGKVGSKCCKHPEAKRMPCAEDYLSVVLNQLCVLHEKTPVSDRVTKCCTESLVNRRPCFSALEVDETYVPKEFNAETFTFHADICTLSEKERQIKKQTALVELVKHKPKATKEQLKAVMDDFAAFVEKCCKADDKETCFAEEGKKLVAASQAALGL

Binder | binding result
B2 | no binding
B3 | no binding
B4 | no binding
B5 | no binding
B6 | no binding
B7 | no binding
B8 | no binding
B9 | no binding
B10 | no binding
B11 | no binding
B12 | no binding
B13 | no binding
B14 | no binding
B15 | no binding
B16 | no binding
B17 | no binding
B18 | no binding

target: T3, recombinant human TfR1 (transferrin receptor 1) (human, UniProt P02786 89-760); assay: phage ELISA
T3 construct: Bought recombinant His-tagged protein; also called hTfR1
T3 sequence (P02786 89-760 limits assumed): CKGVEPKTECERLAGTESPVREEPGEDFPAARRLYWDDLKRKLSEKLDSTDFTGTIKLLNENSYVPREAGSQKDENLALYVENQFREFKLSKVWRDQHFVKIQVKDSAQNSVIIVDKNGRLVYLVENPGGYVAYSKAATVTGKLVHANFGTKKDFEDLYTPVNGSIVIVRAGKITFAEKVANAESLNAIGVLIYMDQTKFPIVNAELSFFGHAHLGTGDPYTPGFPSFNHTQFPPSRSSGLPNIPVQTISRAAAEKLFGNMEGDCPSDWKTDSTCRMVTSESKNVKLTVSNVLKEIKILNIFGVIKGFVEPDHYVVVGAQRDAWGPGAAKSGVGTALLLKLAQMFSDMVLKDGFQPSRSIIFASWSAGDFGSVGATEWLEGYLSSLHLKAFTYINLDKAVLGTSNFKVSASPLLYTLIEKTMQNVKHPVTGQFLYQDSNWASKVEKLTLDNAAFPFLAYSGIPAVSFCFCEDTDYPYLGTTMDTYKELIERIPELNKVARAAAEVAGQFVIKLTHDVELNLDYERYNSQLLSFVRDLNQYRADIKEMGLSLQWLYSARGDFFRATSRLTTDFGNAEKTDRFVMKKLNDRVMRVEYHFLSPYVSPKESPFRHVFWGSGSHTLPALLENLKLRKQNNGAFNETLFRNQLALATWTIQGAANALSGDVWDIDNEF

Binder | binding result
B2 | binds
B3 | binds
B4 | binds
B6 | binds
B9 | binds
B10 | binds
B13 | binds
B15 | binds
B16 | binds
B18 | binds

target: T4, recombinant mouse TfR1 (transferrin receptor 1) (mouse, UniProt Q62351 89-763); assay: phage ELISA
T4 construct: Bought recombinant His-tagged protein; also called mTfR1
T4 sequence (Q62351 89-763 limits assumed): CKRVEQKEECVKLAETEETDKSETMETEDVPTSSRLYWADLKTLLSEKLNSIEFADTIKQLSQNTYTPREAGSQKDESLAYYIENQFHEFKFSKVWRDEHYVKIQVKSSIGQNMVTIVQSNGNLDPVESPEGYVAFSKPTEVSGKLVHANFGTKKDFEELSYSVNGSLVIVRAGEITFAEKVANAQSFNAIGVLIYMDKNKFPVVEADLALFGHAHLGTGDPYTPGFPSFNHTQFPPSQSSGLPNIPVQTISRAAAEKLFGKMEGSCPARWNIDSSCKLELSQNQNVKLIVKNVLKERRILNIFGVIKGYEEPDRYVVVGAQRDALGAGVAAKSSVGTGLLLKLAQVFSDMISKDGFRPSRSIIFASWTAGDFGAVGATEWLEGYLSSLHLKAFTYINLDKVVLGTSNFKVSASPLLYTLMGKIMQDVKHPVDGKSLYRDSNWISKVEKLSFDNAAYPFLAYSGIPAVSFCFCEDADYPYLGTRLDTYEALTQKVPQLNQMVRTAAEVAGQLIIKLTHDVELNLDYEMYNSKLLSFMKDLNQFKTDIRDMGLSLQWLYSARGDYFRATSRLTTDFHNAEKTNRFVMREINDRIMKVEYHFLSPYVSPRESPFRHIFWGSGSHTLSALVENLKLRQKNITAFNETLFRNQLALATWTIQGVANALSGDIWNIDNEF

Binder | binding result
B2 | binds
B3 | binds
B4 | binds
B6 | binds
B10 | binds
B13 | binds
B15 | binds
B16 | binds
B18 | binds

target: T1, recombinant mouse TfR2; assay: phage ELISA

Binder | binding result
B2 | no binding
B3 | no binding
B4 | no binding
B5 | no binding
B6 | no binding
B7 | no binding
B8 | no binding
B9 | no binding
B10 | no binding
B11 | no binding
B12 | no binding
B13 | no binding
B14 | no binding
B15 | no binding
B16 | no binding
B17 | no binding
B18 | no binding

target: T4, recombinant mouse TfR1 (transferrin …); assay: ELISA, plate coated with 1 µg/ml recombinant mouse TfR1, purified VNAR-Fc titrated, 4-parameter fit
Protocol: (§3) It was previously reported that affinity might play a crucial role in TfR1 mediated brain penetration. […] Affinity estimation and unspecific binding was initially assessed using ELISA for human and mouse TfR1.
as §2

Binder | EC50 [µM]
B1 | 5.37
B19 | 7.18

target: T2, human serum albumin; assay: ELISA with Expi293 culture medium used directly, coated HSA, anti-Fc detection
Protocol: as §1, §2

Binder | binding result
B1 | no binding

target: T3, recombinant human TfR1 (transferrin …); assay: ELISA, plate coated with 1 µg/ml recombinant human TfR1, purified VNAR-Fc titrated, 4-parameter fit
Protocol: as §3, §2

Binder | EC50 [µM]
B1 | 0.463
B19 | 3.11
